Experimental data from publication PMC11336900, “Nanobody‐Engineered Biohybrid Bacteria Targeting Gastrointestinal Cancers Induce Robust STING‐Mediated Anti‐Tumor Immunity” (Advanced Science, 2024).
Positions count from the first letter of the chain named.

B1: CDH17 nanobody Nb535 (VHH)
VHH: AVQLVESGGGLVQPGGSLRLSCAASGRTFSSNGMGWFRQAPGKGREFVAAISWNAGTTLYTDSVKGRFTISRDNAKNTVYLQMNSLKPEDTAIYYCAAREYYGGSYYPSREYEYGYWGQGTQVTVSS
notes: source: prokaryotic vector pColdII (TAKARA), purified (Ni-NTA); not shown: HA, C-terminal, kept
B2: CDH17 nanobody Nb289 (VHH)
VHH: B1 VHH with P14A, G16D, K43T
notes: as the VHH of m5 (A1) with one amino acid difference at position 44; also called Nb289 nanobody; source: prokaryotic vector pColdII (TAKARA), purified (Ni-NTA); not shown: HA, C-terminal, kept

How the values were obtained:
[1] = target: T1, human CDH17 protein fragment, domain 1–3 (Homo sapiens, UniProt Q12864); assay: SPR; affinity determination of nanobodies against human and murine CDH17 proteins; conditions: both partners purified
T1 construct: cadherin 17 (CDH17), human, domain 1–3; also called cadherin 17; CDH17 antigen; source: E. coli BL21(DE3), purified (Ni-NTA, gel filtration)

[2] = target: T2, murine CDH17 protein fragment, domain 1–3 (Mus musculus, UniProt Q9R100); assay: as above; conditions: both partners purified
T2 construct: cadherin 17 (CDH17), mouse, domain 1–3; also called mouse CDH17; source: E. coli BL21(DE3), purified (Ni-NTA, gel filtration)
T2 sequence (Q9R100 whole entry, looked up, the tested form may be a part): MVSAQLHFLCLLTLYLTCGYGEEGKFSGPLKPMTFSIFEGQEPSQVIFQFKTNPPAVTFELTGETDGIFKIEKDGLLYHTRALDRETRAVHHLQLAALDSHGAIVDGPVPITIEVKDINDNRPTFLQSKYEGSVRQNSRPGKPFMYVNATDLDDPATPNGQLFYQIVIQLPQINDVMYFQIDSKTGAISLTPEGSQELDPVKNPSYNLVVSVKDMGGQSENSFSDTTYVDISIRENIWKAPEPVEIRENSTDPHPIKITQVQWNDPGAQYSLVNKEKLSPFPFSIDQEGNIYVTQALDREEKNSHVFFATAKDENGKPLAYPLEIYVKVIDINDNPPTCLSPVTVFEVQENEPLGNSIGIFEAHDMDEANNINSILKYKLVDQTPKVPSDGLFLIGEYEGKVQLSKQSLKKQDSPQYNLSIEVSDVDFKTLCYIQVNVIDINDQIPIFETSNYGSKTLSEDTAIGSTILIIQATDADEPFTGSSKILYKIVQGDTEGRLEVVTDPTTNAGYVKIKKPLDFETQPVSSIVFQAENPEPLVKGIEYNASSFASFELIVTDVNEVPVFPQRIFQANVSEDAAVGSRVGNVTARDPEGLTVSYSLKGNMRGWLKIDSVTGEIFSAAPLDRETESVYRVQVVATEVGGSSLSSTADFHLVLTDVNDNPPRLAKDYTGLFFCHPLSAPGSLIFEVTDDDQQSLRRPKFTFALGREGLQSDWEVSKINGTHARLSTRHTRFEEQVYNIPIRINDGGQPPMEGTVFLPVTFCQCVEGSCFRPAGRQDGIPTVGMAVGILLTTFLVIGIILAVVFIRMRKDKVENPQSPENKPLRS

T1 sequence (Q12864 whole entry, looked up, the tested form may be a part): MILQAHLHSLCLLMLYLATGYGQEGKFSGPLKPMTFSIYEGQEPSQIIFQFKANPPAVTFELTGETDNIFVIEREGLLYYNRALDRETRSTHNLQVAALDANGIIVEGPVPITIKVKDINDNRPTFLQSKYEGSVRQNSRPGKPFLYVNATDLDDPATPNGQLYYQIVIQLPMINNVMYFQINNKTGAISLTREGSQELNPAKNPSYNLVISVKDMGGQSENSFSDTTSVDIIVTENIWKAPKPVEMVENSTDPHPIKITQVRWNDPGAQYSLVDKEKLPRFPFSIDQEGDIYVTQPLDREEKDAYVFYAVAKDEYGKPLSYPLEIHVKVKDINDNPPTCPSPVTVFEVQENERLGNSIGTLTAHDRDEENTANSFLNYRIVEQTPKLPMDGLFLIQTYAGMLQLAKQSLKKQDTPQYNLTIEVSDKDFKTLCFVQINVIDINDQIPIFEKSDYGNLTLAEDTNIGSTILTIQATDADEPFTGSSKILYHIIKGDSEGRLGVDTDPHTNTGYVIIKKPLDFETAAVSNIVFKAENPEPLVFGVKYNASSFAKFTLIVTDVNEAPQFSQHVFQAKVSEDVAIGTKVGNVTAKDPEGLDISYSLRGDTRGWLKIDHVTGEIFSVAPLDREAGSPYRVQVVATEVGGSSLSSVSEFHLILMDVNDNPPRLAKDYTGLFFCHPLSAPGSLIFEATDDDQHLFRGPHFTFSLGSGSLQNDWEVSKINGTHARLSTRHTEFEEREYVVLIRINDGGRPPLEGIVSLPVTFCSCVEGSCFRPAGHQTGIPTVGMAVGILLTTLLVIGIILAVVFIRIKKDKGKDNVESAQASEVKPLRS

Binder	Kd [1]	Kd [2]
B1	60.1 nM	109 nM
B2	20.1 nM	32.5 nM
